Measurements published in patent publication US10077436B2, “Beta-glucosidase enzymes for increased biomass saccharification” (Edeniq, Inc., priority 2013, dated 2018).
Where a chain is given by its changes, count along the chain named. Names and notes keep the numbering of the source.

How the values were obtained:
Format in all cases: biochemical
[1] = BG activity assay / kinetics using pNPG substrate; settings: all conditions except initial glucose 36 g/L
Procedure: BG activity assay using pNPG is one of the two commonly used standard assays to measure BG activity, which utilizes hydrolysis of p-nitrophenyl-β-D-glucopyranoside (pNPG) by BG into a yellow colored product, p-nitrophenol (pNP), that has a strong absorbance at 405 nm. One pNPG unit is defined as the amount of enzyme that produces 1 μmol of pNP per min. Briefly, to determine BG activity, 25 μL of diluted enzyme in 200 mM sodium acetate buffer (pH 5.0) was mixed with 25 μL of the same buffer and 25 μL of RO water (or glucose solution for the kinetic study) and the mixture was preincubated at 50° C. for 5 min. […] The reaction was then terminated by adding 100 μL of 0.25 M sodium carbonate, and the amount of pNP produced was determined by measuring absorbance at 405 nm using a predetermined calibration curve. […]
To determine the kinetic properties, a competitive inhibition mechanism was hypothesized as proposed in the literature (Chauve et al, 2010; Krogh et al, 2010). […] The turnover number, Kcat, can be calculated by Equation (2), where [Et] is the total amount of enzyme.
Conventionally, linearization methods can be used to determine the kinetic parameters based on Equation (1). […] Thus, Vmax, Km and Ki can be determined simultaneously from this fitting process, and Km/Ki can then be calculated. Kcat can be obtained by Equation (2) and Kcat/Km can be calculated accordingly.

[2] = BG (cellobiase) activity assay / kinetics using cellobiose substrate, HPLC
Procedure: BG activity assay using cellobiose is the other standard assay to measure BG or cellobiase activity, which utilizes hydrolysis of cellobiose by cellobiase into two molecules of glucose, the last step of enzymatic hydrolysis of cellulose. One cellobiase unit (commonly termed as CBU) is defined as the amount of enzyme that converts […] of cellobiose or produces 2 μmol of glucose per min. Briefly, to determine BG activity, 25 μL of diluted enzyme in 50 mM citrate buffer (pH 4.8) equilibrated to 50° C. was mixed with 25 μL cellobiose (or cellobiose/glucose mixture for the kinetic study) to start the reaction. The mixture was incubated at 50° C. for 10 min, and the reaction was terminated by incubating the mixture at 99° C. for 5 min. Different methods are available to measure the glucose produced in the assays. For the kinetic study, HPLC was used. […]
The specific activity used here was determined by the initial velocity approach that is required by implementing Michaelis-Menten model (Copeland, 2000). The specific activity was determined by measuring consumption of cellobiose in the first 10 min of reaction and was expressed as μmol min^−1 mg^−1, where mg^−1 means per mg of total protein. The relative activity was determined based on the maximum activity obtained in the absence of initial glucose inhibition.

[3] = BG supplementation of Celluclast in 48-hour saccharification of filter paper; settings: for optimal CBU/FPU ratio (optimal BG dosage): 10% solid loading, 20% Celluclast loading
Procedure: Experimental conditions in this example using filter paper substrate was 10% solid loading and 20% Celluclast loading based on glucan content. Different BG dosage based on CBU:FPU (BG activity/total cellulase activity) was tested.
Enhancement of glucose release (Equation 5) and lift of sugar conversion (Equation 6) was compared among various BGs at the optimal dosage over time in FIG. 8.

[4] = BG supplementation of commercial cellulase preparations in corn stover saccharification; settings: added to commercial enzyme preparation, 50° C.
Source text: In this experiment, 10% CTecII per gram glucan and 0.5% HtecII per mass solids was used as a control level for high saccharification of pretreated biomass. The relatively low enzyme dose of 3% Genencor® Trio per gram glucan was used as a base enzyme level to observe increases in saccharification from supplementation with BG enzymes. Enzyme doses of 0.5%, 1% and 2% of HtecII were used in a parallel set of reactions to likewise observe increases in saccharification from supplementation with concentrated extract from yEdQ745, yeast expressing wild type BG and another set of samples supplemented with commercial BG. • BG were used from two sources: wild type BG (yEdQ745) and commercial BG (Nozyme product SP-188). • Commercial cellulase preparations: Novozymes CtecII, Novozymes HtecII and Genencor® Trio. • Biomass used for the experiment: For each reaction 3 gms from Run 177 corn stover at 10% final solid concentration. • BG addition: 2 mL of wild type BG concentrated from yEdQ745 (11× concentrated) was added to the respective reaction. • Commercial BG: 1 uL/gm of biomass • Buffer: sodium citrate buffer pH5.0 was used for the reaction • Saccharification temperature: 50° C./24 and 48 hours.

B1: yEdQ885-BG: improved (modified) in-house beta-glucosidase mutant secreted by yeast strain yEdQ885 (protein)
chain: MRFTLIEAVALTAVSLASADELAYSPPYYPSPWANGQGDWAQAYQRAVDIVSQMTLDEKVNLTTGTGWELELCVGQTGGVPRLGVPGMCLQDSPLGVRDSDYNSAFPAGMNVAATWDKNLAYLRGKAMGQEFSDKGADIQLGPAAGPLGRSPDGGRNWEGFSPDPALSGVLFAETIKGIQDAGVVATAKHYIAYEQEHFRQAPEAQGFGFNISESGSANLDDKTMHELYLWPFADAIRAGAGAVMCSYNQINNSYGCQNSYTLNKLLKAELGFQGFVMSDWAAHHAGVSGALAGLDMSMPGDVDYDSGTSYWGTNLTISVLNGTVPQWRVDDMAVRIMAAYYKVGRDRLWTPPNFSSWTRDECGYKYYYVSEGPFEKVNQYVNVQRNHSELIRRIGADSTVLLKNDGALPLTGKERLVALIGEDAGSNPYGANGCSDRGCDNGTLAMGWGSGTANFPYLVTPEQAISNEVLKHKNGVFTATDNWAIDQIEALAKTASVSLVFVNADSGEGYINVDGNLGDRRNLTLWRNGDNVIKAAASNCNNTIVVIHSVGPVLVNEWYDNPNVTAILWGGLPGQESGNSLADVLYGRVNPGAKSPFTWGKTREAYQDFLVTEPNNGNGAPQEDFVEGVFIDYRGFDKRNETPIYEFGYGLSYTTFNYSNLEVQVLSAPAYEPASGETEAAPTFGEVGNASDYLYPSGLQRITKFIYPWLNGTDLEASSGDASYGQDSSDYLPEGATDGSAQPILPAGGGPGGNPRLYDELIRVSVTIKNTGKVAGDEVPQLYVSLGGPNEPKIVLRQFERITLQPSEETKWSTTLTRRDLANWNVEKQDWEITSYPKMVFVGSSSRKLPLRASLPTVH
modifications: synthetic mutant beta-glucosidase (BG), BG acid/base mutant #8, yEdQ885 -> Y363C/Y375F/A446A/V498V/G510G/Y560Y/Y610F
In the case of B1, the “specific activity towards pNPG, comparison” value [1] is reported as “higher specific activity towards pNPG than both yEdQ745-BG (wild type) and S-BG”, the “specific activity towards cellobiose, comparison” value ([2]; absence of glucose inhibition) is reported as “higher specific activity towards cellobiose than both yEdQ745-BG (wild type) and S-BG” and the “optimal CBU/FPU ratio (optimal BG dosage)” value [3] is reported as 2. The “performance in enhancing saccharification, comparison” value ([3]; optimal BG dosage) was “outperformed the other three BGs”, the “enhancement of sugar release” value ([3]; optimal BG dosage, up to 48 h) was “more than 50%” and the “lift of sugar conversion” value ([3]; optimal BG dosage, up to 48 h) was “more than 13%”.

B2: yEdQ745-BG: wild type Aspergillus niger beta-glucosidase (Accession CAB75696.1, SEQ ID NO:2) secreted by yeast strain yEdQ745 (protein)
chain: B1 chain with C363Y, F375Y, F610Y
modifications: Aspergillus niger; wild type beta-glucosidase (BG)
In the case of B2, the “specific activity towards cellobiose, comparison” value ([2]; all conditions tested) is reported as “the lowest”, the “optimal CBU/FPU ratio (optimal BG dosage)” value [3] is reported as 1 and the “effect of BG supplementation on glucose release / glucan to glucose conversion” value [4] is reported as “dramatically increased”.
